In the data set the target is T1, Long S6 substrate peptide (32 amino-acid).
T1 chain: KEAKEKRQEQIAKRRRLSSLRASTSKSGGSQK

B1: Human recombinant Rho kinase (ROKα/ROCK-II, amino acids 11-552), human active, catalog #14-451, Upstate USA, Inc. (protein)
chain: PGAPETAPGDGAGASRQRKLEALIRDPRSPINVESLLDGLNSLVLDLDFPALRKNKNIDNFLNRYEKIVKKIRGLQMKAEDYDVVKVIGRGAFGEVQLVRHKASQKVYAMKLLSKFEMIKRSDSAFFWEERDIMAFANSPWVVQLFYAFQDDRYLYMVMEYMPGGDLVNLMSNYDVPEKWAKFYTAEVVLALDAIHSMGLIHRDVKPDNMLLDKHGHLKLADFGTCMKMDETGMVHCDTAVGTPDYISPEVLKSQGGDGFYGRECDWWSVGVFLYEMLVGDTPFYADSLVGTYSKIMDHKNSLCFPEDAEISKHAKNLICAFLTDREVRLGRNGVEEIRQHPFFKNDQWHWDNIRETAAPVVPELSSDIDSSNFDDIEDDKGDVETFPIPKAFVGNQLPFIGFTYYRENLLLSDSPSCRENDSIQSRKNEESQEIQKKLYTLEEHLSNEMQAKEELEQKCKSVNTRLEKTAKELEEEITLRKSVESALRQLEREKALLQHKNAEYQRKADHEADKKRNLENDVNSLKDQLEDLKKRNQNSQI
In the case of B1, the “Maximum DPMs found in phosphorylated substrate (i.e. product)” value is given as 52,557±2,058 (n=14) (0.22% of total added DPMs) and the “Net fold phosphorylation of substrate (33P incorporation, filter mat kinase assay)” value is 4.4-fold above basal blanks (n=14 experiments; 42 separate assay determinations).
